In patent US20190353661A1:

T1: Dust mite allergen Der p 2 (dust mite (Dermatophagoides pteronyssinus)) (UniProt P49278)
T1 sequence (looked up): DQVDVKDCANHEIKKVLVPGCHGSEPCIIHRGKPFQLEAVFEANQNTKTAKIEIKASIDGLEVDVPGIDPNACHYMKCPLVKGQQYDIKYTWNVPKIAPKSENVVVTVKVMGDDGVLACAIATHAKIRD

B1: Human IgE mAb 7G12 (antibody, V domains shown)
VH: QVHLVQSGVDVKKPGASVKLSCKTSGYTFTNYGITWVRQAPGQGLEWMGWISTYDGATNYSQNLQGRIIMTTDTSKRTAYLQMRSLRSDDTAVYYCARGRDSPDHWGQGTLVTVSS
VL: DIQMTQSPSTLSASVGDRVTITCRASQSINRWLAWYQQKPGTAPKLLIFKASTLDSGVPARFSGTGSETEFSLTINSLQPDDFATYYCQQYDHFPHTFGPGTKLDIK
B2: Human IgE mAb 11H12 (antibody, V domains shown)
VH: QVQLVESGGDLVTPGGSLRLSCAASGFAFSGYYMSWIRQAPGKGLEWISYINSNGLTISYADSVKGRFTVSRDNAKNSLFLQMSSLRAEDTAIYYCARDWGTTLVTFDLWGQGTLVTVSS
VL: QPVLTQSSSASASMGSSAKLTCTLSSGHRGYNIAWLQQHPGKAPLYLTNLEGSDSYKNDRLTVSSSGADRYLTISNLQPEDEATYYCFTWDSDSRVFGGGTHLTVL
B3: Human IgE mAb 2G1 (antibody)
VH: EFQLVESGGGLIQPGGSLRLSCAGSGFTVTTNYMAWVRQAPGKGLEWVSTIYSAGSTFYADSVKGRFTISGDNSKNTLYLQMGSLRAEDTAVYYCARENPAQDAFDIWAKDTMVTVSSASF
VL: EFSYELTQPLSVSVALGQTARITCGGNNIGSKNVHWYQQKPGLAPVLVIYRDSNRPSGIPARFSGSSSGNTATLTISSAQAGDEADYYCHVWDTSTVVFGGGTKLTVLSLPKAAPSVTLFPPSSEELQANKATLVCLISDFYPGAVTVAWKADSSPVKAGVETTTPSKQSNNKYAASSYLSLTPEQWKSHKSYSCQVTHEGSTVEKTVAPTECS
B4: Human IgE mAb 1A5 (antibody, V domains shown)
VH: EVQLVESGGGVVQPGRSLRLSCAGSGFTFSTYVMHWVRQAPGKGLEWVAVISYDGTNKYYADSMKGRFTISRDNSKNTLYLQLNRLRAEDTAVYYCAKTMDDSSGYYCPDYW
VL: SSELTQDPAVSVALGQTVKITCQGDSLRNYFANWYQQKPGQAPVLVIYGQNNRPSGIPDRFSGSTSGNTGSLTITGAQAEDEADYYCNSRDSSGNHLYVFG

Key:
[1] = biological target: Helminth lysate; test: direct fluorescent ELISA on helminth lysate
[2] = biological target: Helminth lysate; test: ELISA on helminth lysate; (+++) >100 x background
[3] = biological target: Helminth lysate; test: ELISA on helminth lysate; (++) 10-100 x background
[4] = biological target: T1, Dust mite allergen Der p 2 (dust mite (Dermatophagoides pteronyssinus)); test: direct ELISA, Der p2 coated at 5 µg/mL, two-fold dilutions of IgE, anti-human IgE secondary, OD 450 nm

Binder	RFU [1] [RFU]	fold over background [2] [fold]	fold over background (times background) [1]	fold over background [3] [fold]	EC50 [4] [ng/mL]
B1	40000	> 100	–	–	–
B2	1000	–	10	10 to 100	–
B3	–	–	–	–	7.1
B4	–	–	–	10 to 100	–
